The text below walks through data of the nanobody polyreactivity screen of Harvey et al. (2022).

This series can be described thus: yeast display, Sf9 membrane polyspecificity reagent, FACS + sequencing; frameworks hold sequencing errors. The method, boiled down: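 Nanobodies came from a synthetic yeast display library in Saccharomyces cerevisiae BJ5465, induced with galactose for 36–48 hours and stained for 1 hour at 4 °C with 10% biotinylated, detergent-solubilized Sf9 membrane reagent. Cells were enriched on streptavidin microbeads and then FACS-sorted, with low and high (top ~1%) gates set on anti-HA fluorescence for expression and streptavidin fluorescence for reagent binding. Each polyreactivity label reflects the gate a clone came from. Genes were amplified by colony PCR, sequenced by MiSeq 2 × 250 and filtered by CDR length.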
For “QVQLVESGGGLVQAGGSLRLSCAASGIIFSFNAMGWYRQAPGKERELVAAITWRDGSTYYADSVKGRFTISRDNAKNTVYLQMNSLKPEDTAVYYCNADLLDISSYDGMDYWGQGTQVTVSS”, the “polyreactivity (PSR sort gate)” value is “low polyreactivity”.
As to “QVQLVESGGGLVQAGGSLRLSCAASGIIFSIYALGWYRPAAGKERELVAAITYSGGRTYYADSVKGRFTISRDNAKNSVYLQMNSLKPEDTAVYYCAAVGYGEYYWGQGTQVTVSS”, the “polyreactivity (PSR sort gate)” value is “high polyreactivity”.
With “QVQLVESGGGLVQAGGSLRLSCAASGIIFSIYAMGLYRQAPGKERELVAVISRSSGSTYYADSVKGRFTISRYNAKNTVYLQMNSLKPEDTAVYYCAARKNRAYGYWGQGTQVTVSS” the entry was “high polyreactivity”.
“QVQLVESGGGLVQAGGSLRLSCAASGIIFSQYAMGWYRQAPGKERELVASISSGGRTNYADSVKGRFTISRDNAKNTVYLQMNSLKPEDTAVYYCATRYRYKRYAASVQYDYWGQGTQVTVSS”: the “polyreactivity (PSR sort gate)” value was “high polyreactivity”.
With “QVQLVESGGGLVQAGGSLRLSCAASGIIFSSYAMGWYRQAPGKERELVADISYTGGSTYYADSVKGRFTISRDNAKNTVYLQMNSLKPEDTAVYYSAAGVYLHYSVDYWGQGTQVTVSS”, the “polyreactivity (PSR sort gate)” value is reported as “low polyreactivity”.
For “QVQLVESGGGLVQAGGSLRLSCAASGIIFSSYVMGWYRQAPGKERELVAAISKSGARTSYADSVKGRFTISRDNAKNTVYLQMNSLKPEDTAVYYCAATYLLERPTSKHPRYDYWGQGTQVTVSS” the value was “low polyreactivity”; for “QVQLVESGGGLVQAGGSLRLSCAASGIIFSSYVMGWYRQAPGKERELVAAISSRGVSTYYADSVKGRFTISRDNAKNTVYLQMNSLKPEDTAVYYCAGVGPSYVRYYYWGQGTQVTVSS”, “high polyreactivity”; for “QVQLVESGGGLVQAGGSLRLSCAASGIIFSTYAMGWYRQAPGKERELVAAISDGGASTYYADSVKGRFTISRDNAKNTVYLQMNSLKPEDTAVYFCAAVQTAGQFRYGYWGQGTQVTVSS”, “high polyreactivity”.
With “QVQLVESGGGLVQAGGSLRLSCAASGIIFSTYAMGWYRQAPGKERELVAAISVSGGRTYYADSVKGRFTISRDNAKNTVYLQMNSLKREDTAVYSCNALSSTEYDYWGQGTQVTVSS” the entry was “high polyreactivity”; with “QVQLVESGGGLVQAGGSLRLSCAASGIIFSWYSMGWYIEAPGKERELVAAISWSGGRTYYSDSVKGRFTISRDNAKNNVYLQMNSLKPEDTAVYYCAAERNRYSHWEARYYWGQGTQVTVSS”, “high polyreactivity”.
For “QVQLVESGGGLVQAGGSLRLSCAASGIIFSYYAMGWYRPEHGKEREFVAVITTGGGSTSYADSVKGRFTISRDNAKNTVYLQMNSLKPEDTAVYYCTAGHLGLDGIQDGVDYWGQGTQVTVSS” the value was “low polyreactivity”.
With “QVQLVESGGGLVQAGGSLRLSCAASGIIFTGYAMGWYRQAPGKERELVAAISESGGSTYYADSVKGRFTISRDNAKNTVYLQMNSLKPEDTAVDYCAVDALSITYGYWGQGTQVTVSS”, the “polyreactivity (PSR sort gate)” value is “low polyreactivity”.
With “QVQLVESGGGLVQAGGSLRLSCAASGIIFTINAMGWYRQAPGKERELVAAISGRGARTYYADSVKGRFTISRDNAKNTVYLQMNSLKPEDTAVYYCNAANSRLHGSDYWGQGTQVTVSS” the entry was “high polyreactivity”; with “QVQLVESGGGLVQAGGSLRLSCAASGIIFTNNAIGWYRQAPGKERELGAAITSGGRTYYADSVKGRFTISRDNAKNTVSLQMNSLKPEDTAVYYCNARYYYGGWRVGYWGQGTQLTVSS”, “high polyreactivity”; with “QVQLVESGGGLVQAGGSLRLSCAASGIIFTPYTMGWYRQAPGKERELVAAITGSGGSTYYADSVKGRFTISRDNAKNTVYLQMNSLKPEDTAVYYCAAYKQYRFYRYDYWGQGTQVTVSS”, “high polyreactivity”.
Turning to “QVQLVESGGGLVQAGGSLRLSCAASGIIFTRYAMGWYRQAPGKERELVAAITTSGGRTYYADSVKGRFTISRDNAKNTVYLQMNSLKPEDTAVYYCAVSGHARYDYWGQGTQVTVSS”, the “polyreactivity (PSR sort gate)” value was “high polyreactivity”.
For “QVQLVESGGGLVQAGGSLRLSCAASGIIFTRYVMGWYRQAPGKQRELVAVISRRGGTTYYADSVKGRFTISRDNAKNTVYLQMNSLKPEVTAVYYCNTDGYRYPGSGINYYYWGQGTQVTVSS” the value was “high polyreactivity”.
For “QVQLVESGGGLVQAGGSLRLSCAASGIIFTSNTMGWYRQAPGKEREFVASINWNGSSTYADSVKGRFTISRDNAKNTVFLQMNSLKPEDTAVYDCNADYYRNSVQFSLYDYWGHGTQVTVSS” the value was “low polyreactivity”; for “QVQLVESGGGLVQAGGSLRLSCAASGIIFTSYVMGWYRQAPGKERELVAAISSDGGSTYYADSVKGRFTISRDNAKNTVYLQMNSLKPEDTAVYYCAVDWLEIGDTGFDYWGQGTQVTVSS”, “low polyreactivity”.
With “QVQLVESGGGLVQAGGSLRLSCAASGIIFTVYTMGWYRQAPGKERELVAAITTNGGSTYYADSVKGRFTISRDNAKNTVYLQMNSLKPEDTAVYYCAADYPYKPITYDYWGQGTQVTVSS” the entry was “low polyreactivity”; with “QVQLVESGGGLVQAGGSLRLSCAASGIIFTYAMGWYRQAPGKERELVAAIDWRGGRTYYADTVKGRFTISRDNAKNTVYLEMNSLKPEDTAVYYCAARLPGGTYYWGQGTQVTVSS”, “high polyreactivity”; with “QVQLVESGGGLVQAGGSLRLSCAASGIIFTYNAMGWYRQPPGKERELVAAISASGSSTYYADSVKGRFTISLDNAKNTVYLQMNSLKPEDTAVYYCAARTRRGLARYDYWGQGTQGTVSS”, “high polyreactivity”.
“QVQLVESGGGLVQAGGSLRLSCAASGIIFTYYAMGWYIQAPGKERELVAGITWSGTTTYYADSVKGRFTISRDNAKKTVYLQMNSLKPEDPAVYYCNALGYYEHDYWGQGTQVTVSS”: the “polyreactivity (PSR sort gate)” value is “low polyreactivity”.
For “QVQLVESGGGLVQAGGSLRLSCAASGIIFTYYAMGWYRQAPGKEREFVAAISNGGSNTRYADSVKGRFTISRDNAKNTVYLQMNSLKPEDTAVYYCAARAYQHYNWGQGTQVTVSS” the value was “high polyreactivity”.
With “QVQLVESGGGLVQAGGSLRLSCAASGIIFTYYAMGWYRQAPGKEREIVAAISWSGGNTYYADSVKGRFTISRDHAKNTVYLQMNSLKPEDTAVYYCARVQYWFYKPMYYWGQGTQVTVSS” the entry was “high polyreactivity”.
For “QVQLVESGGGLVQAGGSLRLSCAASGIIFVPNTMGWYRQAPGKERELVAAIRWSGGTTYYADSVKGRFTISRDNAKNTVYLQMNSLKPEDTAVYYCAARYGSRSSYLAYYYWGQGTQVTVSS” the value was “high polyreactivity”; for “QVQLVESGGGLVQAGGSLRLSCAASGIIFVRNAMGWYRQAPGKERELVAAITWRGSTYYADSVKGRFTISRDNAKNTVYLQMNSLKPEDTAVYYCAAQWLYLEYDYWGQGTQVTVSS”, “high polyreactivity”; for “QVQLVESGGGLVQAGGSLRLSCAASGIIFVRYAMGWYRQAPGKERELVAAITWRGSTYYADSVKGRFTISRDNAKNTVYLQMNSLKPEDTAVYYCAAVKPHYTSFRDYYCGQGTQVTVSS”, “high polyreactivity”.
For “QVQLVESGGGLVQAGGSLRLSCAASGIIFVSYAMGWYRQAPGKEWELVADISSGGRTYYADSVKGRFTISRDNAKNTVYLPMNSLKPEDTAVYYCAKVKRDLQYPGLPEVLNREYWGQGTQVTVSS”, the “polyreactivity (PSR sort gate)” value was “high polyreactivity”.
With “QVQLVESGGGLVQAGGSLRLSCAASGIIFVYNAMGWYRQAPGKERELVAGISFIGDSTYYADSVKGRFTISRDNAKNTVYLQMNSLKPEDTAVYYCAADYYLPYWFFVGYDYWGQGTQVTVSS”, the “polyreactivity (PSR sort gate)” value was “low polyreactivity”.
For “QVQLVESGGGLVQAGGSLRLSCAASGIIFVYYDMGWYRQAPGKERELVASISRGGSTNYADSVKGRFTISRDNAKNTVYLQMNSLKPEDTAVYYCAAGSYSILVHLVRYYYWGQGTQVTVSS” the value was “high polyreactivity”; for “QVQLVESGGGLVQAGGSLRLSCAASGIIFVYYTLGWYRQAPGKERELVAAITSGGSTYYADSVKGRFTISRDNAKNTVYLQMNSLKPEDTAVYYCAARTYRQPYYILDYYWGQGTQVTVSS”, “high polyreactivity”.
With “QVQLVESGGGLVQAGGSLRLSCAASGIIFVYYVMGWYRQAPGKERELVAAISWDGGSTYYADSVKGRFTISRDNAKNTVYLQMNSLKPEDTAVYYCAARYKGNPDRYGYWGLGTQVTVSS” the entry was “high polyreactivity”.
Regarding “QVQLVESGGGLVQAGGSLRLSCAASGIIFWAYAMGWYRQAPGKERELVAAISWSGGRTYYADSVKGRFTISRDNAKNTVYLQMNSLKPEDTAVYYCAAYRFLLYDYWGQGTQVTVSS”, the “polyreactivity (PSR sort gate)” value is recorded as “high polyreactivity”.
With “QVQLVESGGGLVQAGGSLRLSCAASGIIFWDYAMGWYSQAPGKERELVAAISSSGSTTYYADSVKGRFTISRDNAKNTVYLQMNSLKPEDTAVYYCAAESLYEDDKGDYWGQGTQVTVSS” the entry was “high polyreactivity”; with “QVQLVESGGGLVQAGGSLRLSCAASGIIFWRYAMGWYRQAPGKERELDAGITSRGGSTYYADSVKGRFTISRDNAKNTVYLQMNSLKPEDTAVYYCNAPRGSRRSYRRTEYYYWGQGTQVTVSS”, “high polyreactivity”.
With “QVQLVESGGGLVQAGGSLRLSCAASGIIFWSSVMGWYRQAPGKERELVAAITFSGGSTYYADSVKGRFTISRDNAKNPVYLQMNSLKPEDTAVYYCAARYKLVRRYDYWGQGTQVTVSS” the entry was “low polyreactivity”.
With “QVQLVESGGGLVQAGGSLRLSCAASGIIFWSYTMGWYSQAPGKERELVAVITSDGSTNYADSVKGRITISRDNAKNSVYLQMKSLKPEDTAVYDCAADPWLGTGRYDYWGQGTQVTVSS” the entry was “low polyreactivity”; with “QVQLVESGGGLVQAGGSLRLSCAASGIIFYDYAMGWYRQAPGKERELVAAISRSGSSTYYADSVKGRFTISRDNAKNTVYLQMNSLKPEDTAVYYCASRFGDMGYWGQGTQVTVSS”, “high polyreactivity”; with “QVQLVESGGGLVQAGGSLRLSCAASGIIFYDYAMGWYRQAPGKERELVAAISTDAGSTYYADSVKGRFTISRDNAKNTVYLQMNCLKPEDTAVYYCNADELSYYVSWDYEYDYWGQGTQVTVSS”, “high polyreactivity”.
Take “QVQLVESGGGLVQAGGSLRLSCAASGIIFYDYAMGWYRQAPGKERELVAAITSSGGSTYYADSVKGRFTISRDNAKNTVYLQMNSLKPEDTAVYYCAAATRGSGRRYDYWGQGTQVTVSS”: the “polyreactivity (PSR sort gate)” value is given as “high polyreactivity”.
